From publication PMC10194873 come the findings set out here.

For experiment [1], the target named is CagI N-terminal domain (CagI^N) (Helicobacter pylori strain 26695). Kind of experiment: SEC-MALS.
Experiment [2] shares this target. Kind of experiment: SEC-SAXS. (In gel filtration, larger molecules generally elute earlier.)
Experiment [3] has as its target CagI with a C-terminal strep-tag (residues 21-381) (Helicobacter pylori strain 26695). Kind of experiment: SEC-MALS.
The target in experiment [4] is CagI (untagged, residues 21 to 381) (Helicobacter pylori strain 26695). Kind of experiment: SEC-MALS.

Regarding “CagI N-terminal domain (CagI^N) (domain or fragment)”, the stoichiometry N in experiment [1] and in experiment [2] was 2 in each case. “CagI with a C-terminal strep-tag (residues 21-381) (natural protein)” had a stoichiometry N in experiment [3] of 2. As for “CagI (untagged, residues 21 to 381) (natural protein)”, in experiment [4], the stoichiometry N came out at 2.

For orientation: stoichiometry N means the number of molecules, sites or subunits per partner or assembly.
